Measured values: paper PMC10855902 (International Journal of Molecular Sciences, 2024)

Experiments:
Settings in all cases: both partners purified
[1] = molecular target: T1, Recombinant human EGFR protein (Active) (ab155639) (human, UniProt P00533 25-645, labelled with RED-tris-NTA 2nd Generation dye); experiment: MST; RED-tris-NTA-labelled EGFR 25 nM, ligand in a 16-step 1:1 dilution series in PBS-T, 30 min at room temperature; assay concentration of the ligand 50 μM
T1 construct: epidermal growth factor receptor (EGFR, ErbB-1), human, recombinant; also called EGF receptor; ErbB-1; source: bought: Abcam (ab155639), recombinant

[2] = molecular target: T1, Recombinant human EGFR protein (Active) …; experiment: MST; RED-tris-NTA-labelled EGFR 25 nM, ligand in a 16-step 1:1 dilution series in PBS-T, 30 min at room temperature; assay concentration of the ligand 100 μM
[3] = molecular target: T1, Recombinant human EGFR protein (Active) …; experiment: MST; RED-tris-NTA-labelled EGFR 25 nM, ligand in a 16-step 1:1 dilution series in PBS-T, 30 min at room temperature; assay concentration of the ligand 5 mM
[4] = molecular target: T1, Recombinant human EGFR protein (Active) …; experiment: MST; RED-tris-NTA-labelled EGFR 25 nM, ligand in a 16-step 1:1 dilution series in PBS-T, 30 min at room temperature; assay concentration of the ligand 2.5 mM
[5] = molecular target: T1, Recombinant human EGFR protein (Active) …; experiment: MST; RED-tris-NTA-labelled EGFR 25 nM, ligand in a 16-step 1:1 dilution series in PBS-T, 30 min at room temperature; assay concentration of the ligand 250 μM
[6] = molecular target: T1, Recombinant human EGFR protein (Active) …; experiment: MST; RED-tris-NTA-labelled EGFR 25 nM, ligand in a 16-step 1:1 dilution series in PBS-T, 30 min at room temperature; assay concentration of the ligand 6.02 mM
[7] = molecular target: T1, Recombinant human EGFR protein (Active) …; experiment: MST; RED-tris-NTA-labelled EGFR 25 nM, ligand in a 16-step 1:1 dilution series in PBS-T, 30 min at room temperature; assay concentration of the ligand 10 mM
[8] = molecular target: T1, Recombinant human EGFR protein (Active) …; experiment: MST; RED-tris-NTA-labelled EGFR 25 nM, ligand in a 16-step 1:1 dilution series in PBS-T, 30 min at room temperature; assay concentration of the ligand 3 mM
[9] = molecular target: T1, Recombinant human EGFR protein (Active) …; experiment: MST; RED-tris-NTA-labelled EGFR 25 nM, ligand in a 16-step 1:1 dilution series in PBS-T, 30 min at room temperature; assay concentration of the ligand 463 μM
[10] = molecular target: T1, Recombinant human EGFR protein (Active) …; experiment: MST; RED-tris-NTA-labelled EGFR 25 nM, ligand in a 16-step 1:1 dilution series in PBS-T, 30 min at room temperature; assay concentration of the ligand 1 mM

Kd [1] [µM]	Kd [2] [µM]	Kd [3] [µM]	Kd [4] [µM]	Kd [5] [µM]	Kd [6] [µM]	Kd [7] [µM]	Kd [8] [µM]	Kd [9] [µM]	Kd [10] [µM]	Binder
0.0664	0.0174	663	431	48.4	715	533	–	–	–	HDGYCL (EGF, human, residues 10-15; numbers count on: the mature protein; also called 10–15 EGF fragment; source: synthetic peptide (SPPS, Fmoc; crude, without preparative HPLC)) [EGF fragment 10–15 (HDGYCL)]
0.0705	8.2	–	–	–	–	–	416	21.2	35.9	HDGYCLHDGVCMY (EGF, human, residues 10-22; numbers count on: the mature protein; source: synthetic peptide (SPPS, Fmoc; crude, without preparative HPLC)) [EGF fragment 10–22 (HDGYCLHDGVCMY)]
